The text below walks through data of US20190233493A1 (Sanofi, published 2019).

For the assay, the target named is T1, RXFP1 receptor (UniProt Q9HBX9 1-757, limits assumed).
T1 sequence (looked up): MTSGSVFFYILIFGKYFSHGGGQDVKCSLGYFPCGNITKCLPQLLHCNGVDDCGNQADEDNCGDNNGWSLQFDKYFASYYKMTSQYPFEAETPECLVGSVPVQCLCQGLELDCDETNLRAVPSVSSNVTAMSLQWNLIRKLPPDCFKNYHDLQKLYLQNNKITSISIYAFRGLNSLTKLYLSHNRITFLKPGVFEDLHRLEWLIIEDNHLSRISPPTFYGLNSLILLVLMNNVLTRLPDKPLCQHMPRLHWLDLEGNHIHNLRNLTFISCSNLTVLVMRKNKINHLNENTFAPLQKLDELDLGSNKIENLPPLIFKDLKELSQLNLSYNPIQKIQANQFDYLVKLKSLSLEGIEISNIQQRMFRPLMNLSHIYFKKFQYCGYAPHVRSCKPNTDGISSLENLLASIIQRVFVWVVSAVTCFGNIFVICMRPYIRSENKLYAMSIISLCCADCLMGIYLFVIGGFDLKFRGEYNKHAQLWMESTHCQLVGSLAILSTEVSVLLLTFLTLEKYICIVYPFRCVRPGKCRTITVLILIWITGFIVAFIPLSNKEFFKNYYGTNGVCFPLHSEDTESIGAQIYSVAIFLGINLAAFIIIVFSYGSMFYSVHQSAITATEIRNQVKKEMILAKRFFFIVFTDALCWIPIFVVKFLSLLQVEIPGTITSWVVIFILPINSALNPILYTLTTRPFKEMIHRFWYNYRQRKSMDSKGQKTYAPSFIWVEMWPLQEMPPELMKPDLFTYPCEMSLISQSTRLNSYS
Kind of assay: cell-based or functional assay.

*1 amine or outer side, *2 acyl side, *3 side chain or, on linkers, in order; H or OH if unused. Primed or numbered codes have the meaning given here. Side-chain parts run from the residue outwards. [ ]: non-standard residue; d: D form. The star is where a group is joined. PEG2DGA = 2-[2-[3-[2-[2-(3-aminopropoxy)ethoxy]ethoxy]propylamino-2-oxo-ethoxy]acetyl; γGlu = O=C(O)[C@H](CCC(=O)[*:2])N[*:1]; 1Nal = N[C@@H](Cc1cccc2ccccc12)C(=O)O; Stearoyl = CCCCCCCCCCCCCCCCCC(=O)*; Palmitoyl = CCCCCCCCCCCCCCCC(=O)*; αMeK = C[C@](N)(CCCCN)C(=O)O; Nle = CCCC[C@H](N)C(=O)O; PEG2′ = PEG2 spacer unit; PEG2″ = not defined here; Aib = CC(C)(N)C(=O)O

As to Ac-LEGREKVRAQI[Aib][Aib]EG[Nle]STWS[Aib]RKKK([PEG2′-PEG2′-PEG2′-PEG2′-PEG2′-γGlu-γGlu-γGlu-Stearoyl])-NH2 [peptide of SEQ ID NO: 93], the “EC50 (nM), OVCAR 5 cells (cAMP)” value is 0.14 nM and the “EMax, OVCAR 5 cells (cAMP)” value was 87%.
Ac-LEGREKVRAK(Ac)I[Aib][Aib]EG[Nle]STYS[Aib]RKK(Ac)K([PEG2″-PEG2″-PEG2″-γGlu-γGlu-γGlu-Stearoyl])-NH2 [peptide of SEQ ID NO: 78]: the “EC50 (nM), OVCAR 5 cells (cAMP)” value came to 1.04 nM and the “EMax, OVCAR 5 cells (cAMP)” value was 73%.
Consider Ac-LEGREKVRAQI[Aib][Aib]EG[Nle]STWT[Aib]RKKK([PEG2″-PEG2″-PEG2″-γGlu-γGlu-γGlu-Stearoyl])-NH2 [peptide of SEQ ID NO: 76], for which the “EC50 (nM), OVCAR 5 cells (cAMP)” value came out at 0.8 nM and the “EMax, OVCAR 5 cells (cAMP)” value was found to be 89%.
Taken in the same sequence, the figures for Ac-LEGREKVRAK(Ac)I[Aib][Aib]EG[Nle]STWS[Aib]RKKK([PEG2′-PEG2′-PEG2′-PEG2′-γGlu-γGlu-γGlu-Stearoyl])-NH2 [peptide of SEQ ID NO: 91] were 0.01 nM and 88%.

B1: peptide of SEQ ID NO: 9 (peptide)
peptide: Ac-LEGREKVRAQI[Aib][Aib]EG[Nle]STWS[Aib]RKK([γGlu-γGlu-γGlu-Stearoyl])-NH2
SMILES: CCCCCCCCCCCCCCCCCC(=O)N[C@@H](CCC(=O)N[C@@H](CCC(=O)N[C@@H](CCC(=O)NCCCC[C@H](NC(=O)[C@H](CCCCN)NC(=O)[C@H](CCCNC(=N)N)NC(=O)C(C)(C)NC(=O)[C@H](CO)NC(=O)[C@H](Cc1c[nH]c2ccccc12)NC(=O)[C@@H](NC(=O)[C@H](CO)NC(=O)[C@H](CCCC)NC(=O)CNC(=O)[C@H](CCC(=O)O)NC(=O)C(C)(C)NC(=O)C(C)(C)NC(=O)[C@@H](NC(=O)[C@H](CCC(N)=O)NC(=O)[C@H](C)NC(=O)[C@H](CCCNC(=N)N)NC(=O)[C@@H](NC(=O)[C@H](CCCCN)NC(=O)[C@H](CCC(=O)O)NC(=O)[C@H](CCCNC(=N)N)NC(=O)CNC(=O)[C@H](CCC(=O)O)NC(=O)[C@H](CC(C)C)NC(C)=O)C(C)C)[C@@H](C)CC)[C@@H](C)O)C(N)=O)C(=O)O)C(=O)O)C(=O)O
For B1, the “EC50 (nM), OVCAR 5 cells (cAMP)” value amounted to 11.8 nM and the “EMax, OVCAR 5 cells (cAMP)” value was 95%.
Taken in the same sequence, the figures for Ac-LEGREKVRLQI[Aib][Aib]EG[Nle]STWT[Aib]RKKK([PEG2″-PEG2″-PEG2″-γGlu-γGlu-γGlu-Stearoyl])-NH2 [peptide of SEQ ID NO: 77] were 2.94 nM and 92%.
The like results for Ac-LEGREKVRAK(Ac)I[Aib][Aib]EG[Nle]STWS[Aib]RKK(Ac)K([PEG2′-PEG2′-PEG2′-PEG2′-γGlu-γGlu-γGlu-Stearoyl])-NH2 [peptide of SEQ ID NO: 90] were, in that order, 0.07 nM and 89%.
The like results for Ac-LEGREKVRAK(Ac)I[Aib][Aib]EG[Nle]ST[1Nal]S[Aib]RKK([PEG2″-PEG2″-PEG2″-γGlu-γGlu-γGlu-Stearoyl])-NH2 [peptide of SEQ ID NO: 79] were, in that order, 0.4 nM and 75%.
Take Ac-LEGREKVRAK(Ac)I[Aib][Aib]EG[Nle]ST[1Nal]S[Aib]RK(Ac)LK([PEG2′-PEG2′-PEG2′-γGlu-γGlu-γGlu-Stearoyl])-NH2 [peptide of SEQ ID NO: 87]: the “EC50 (nM), OVCAR 5 cells (cAMP)” value was found to be 1.63 nM and the “EMax, OVCAR 5 cells (cAMP)” value turned out to be 71%.
The like results for Ac-LEGREKVRAQI[Aib][Aib]EG[Nle]STWS[Aib]RKKK([PEG2′-PEG2′-PEG2′-PEG2′-γGlu-γGlu-γGlu-Stearoyl])-NH2 [peptide of SEQ ID NO: 92] were, in that order, 0.26 nM and 82%.
Taken in the same sequence, the figures for Ac-LEGREKVRAK(Ac)I[Aib][Aib]EG[Nle]STWS[Aib]RKK(Ac)K([PEG2DGA-PEG2DGA-PEG2DGA-γGlu-γGlu-γGlu-Stearoyl])-NH2 [peptide of SEQ ID NO: 96] were 1.77 nM and 89%.
The like results for Ac-LEGREKVRAQI[Aib][Aib]EG[Nle]STWS[Aib]RKKK([PEG2′-PEG2′-PEG2′-γGlu-γGlu-γGlu-γGlu-Stearoyl])-NH2 [peptide of SEQ ID NO: 88] were, in that order, 0.11 nM and 74%.
Consider Ac-LEGREKVRAK(Ac)I[Aib][Aib]EG[Nle]STWS[Aib]RKK(Ac)K([PEG2DGA-PEG2DGA-γGlu-γGlu-γGlu-Stearoyl])-NH2 [peptide of SEQ ID NO: 95], for which the “EC50 (nM), OVCAR 5 cells (cAMP)” value is 1.03 nM and the “EMax, OVCAR 5 cells (cAMP)” value came out at 87%.
On to Ac-LEGREKVRAK(Ac)I[Aib][Aib]EG[Nle]STWS[αMeK]RKK(Ac)K([PEG2′-PEG2′-PEG2′-γGlu-γGlu-γGlu-γGlu-Stearoyl])-NH2 [peptide of SEQ ID NO: 82], for which the “EC50 (nM), OVCAR 5 cells (cAMP)” value amounted to 0.02 nM and the “EMax, OVCAR 5 cells (cAMP)” value was determined as 89%.
Ac-LEGREKVRAK(Ac)I[Aib][Aib]EG[Nle]STWS[Aib]RKK(Ac)K([PEG2DGA-γGlu-γGlu-γGlu-Stearoyl])-NH2 [peptide of SEQ ID NO: 94]: the “EC50 (nM), OVCAR 5 cells (cAMP)” value amounted to 2.74 nM and the “EMax, OVCAR 5 cells (cAMP)” value worked out at 90%.
The like results for Ac-LEGREKVRAQI[Aib][Aib]EG[Nle]STWS[Aib]RK[PEG2″]K([γGlu-γGlu-γGlu-Palmitoyl])-NH2 [peptide of SEQ ID NO: 10] were, in that order, 18.9 nM and 96%.
The like results for Ac-LEGREKVR[Aib]K(Ac)I[Aib][Aib]EG[Nle]ST[1Nal]S[Aib]RKK([PEG2′-PEG2′-PEG2′-γGlu-γGlu-γGlu-Stearoyl])-NH2 [peptide of SEQ ID NO: 80] were, in that order, 0.73 nM and 68%.
Ac-LEGREKVR[Aib]K(Ac)I[Aib][Aib]EG[Nle]ST[1Nal]S[Aib]RKK(Ac)K([PEG2′-PEG2′-PEG2′-γGlu-γGlu-γGlu-Stearoyl])-NH2 [peptide of SEQ ID NO: 85]: the “EC50 (nM), OVCAR 5 cells (cAMP)” value amounted to 0.77 nM and the “EMax, OVCAR 5 cells (cAMP)” value stood at 75%.
The like results for Ac-LEGREKVRAK(Ac)I[Aib][Aib]EG[Nle]ST[1Nal]S[Aib]RKK(Ac)K([PEG2′-PEG2′-PEG2′-γGlu-γGlu-γGlu-Stearoyl])-NH2 [peptide of SEQ ID NO: 84] were, in that order, 0.09 nM and 76%.
The like results for Ac-LEGREKVRAK(Ac)I[Aib][Aib]EG[Nle]STWS[Aib]RKKK([PEG2′-PEG2′-PEG2′-γGlu-γGlu-γGlu-γGlu-Stearoyl])-NH2 [peptide of SEQ ID NO: 89] were, in that order, 0.03 nM and 79%.
The like results for Ac-LEGREKVRAK(Ac)I[Aib][Aib]EG[Nle]STWS[Aib]RKK(Ac)K([PEG2′-PEG2′-PEG2′-γGlu-γGlu-γGlu-Stearoyl])-NH2 [peptide of SEQ ID NO: 81] were, in that order, 0.22 nM and 84%.
Regarding Ac-LEGREKVRAK(Ac)I[Aib][Aib]EG[Nle]STWS[Aib]RKK([PEG2′-PEG2′-PEG2′-γGlu-γGlu-γGlu-Stearoyl])-NH2 [peptide of SEQ ID NO: 83], the “EC50 (nM), OVCAR 5 cells (cAMP)” value was determined as 0.85 nM and the “EMax, OVCAR 5 cells (cAMP)” value is 92%.
